# US20230151109A1 (UCB, published 2023)
# T1: recombinant human CD9 long extracellular loop 2-human Fc fusion protein (10015-CD, R&D Systems) (human, UniProt P21926 112-195)
# T1 construct: Bought protein; The parts are ordered as in the printed name; also called CD9-loop2; long extracellular loop 2 peptide; not shown: human Fc of the bought fusion protein
# T1 sequence: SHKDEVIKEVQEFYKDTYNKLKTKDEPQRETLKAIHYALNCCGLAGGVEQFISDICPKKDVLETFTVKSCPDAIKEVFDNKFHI
# T2: full-length CD9 expressed on cells (human, UniProt P21926 2-228)
# T2 construct: also called human CD9
# T2 sequence: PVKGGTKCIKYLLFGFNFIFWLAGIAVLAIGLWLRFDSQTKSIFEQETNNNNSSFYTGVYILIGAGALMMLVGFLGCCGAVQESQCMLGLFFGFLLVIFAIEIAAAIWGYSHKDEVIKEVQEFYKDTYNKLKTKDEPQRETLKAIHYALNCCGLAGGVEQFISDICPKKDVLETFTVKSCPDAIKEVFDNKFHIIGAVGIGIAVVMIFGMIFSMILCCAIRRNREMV
# Columns and labels:
# [1] = biological target: T1, recombinant human CD9 long …; experiment: biolayer interferometry (Octet RED384), CD9 loop 2-Fc on AHC biosensors, Fab-Y 10 ug/mL
# Experimental: Seven different CD9 antibodies each providing unique functional activity with CD137, CD7 and HVEM antibodies in a bispecific combination were analysed for their ability to bind the long extracellular loop 2 of CD9. CD9 contains two extracellular loops: a short extracellular loop (loop 1: 34-55 in SEQ ID NO:1) and a long extracellular loop (loop 2: 112-195 in SEQ ID NO:1). We used biolayer interferometry to assess binding of our panel of CD9 Fab-Y antibodies (selected for ability to bind full-length CD9 expressed on cells) to the long extracellular loop 2 peptide, using the Octet® RED384 System (FortéBio) with anti-hIgG Fc Capture (AHC) Biosensors (FortéBio) at room temperature. Firstly, an array of 8 sensors was dipped in kinetics buffer (PBS 0.1%, BSA 0.02%, Tween 20) for 120 seconds to provide a baseline signal. Sensors were then moved to wells containing 200 μl of recombinant human CD9 long extracellular loop 2-human Fc fusion protein (10015-CD, R&D Systems®) at 2 μg/mL in kinetics buffer to immobilize the protein to the biosensor (100 seconds), followed by a second baseline step (180 seconds) in kinetics buffer to equilibrate the biosensors now coated with the CD9 long extracellular loop 2-human Fc fusion protein. No detachment of the peptide was observed during this step. […]
# [2] = biological target: T2, full-length CD9 expressed on cells; experiment: selection by binding to cells expressing full-length CD9; method not described
binder,measurement,setting,value
"anti-CD9 Fab-Y antibody 7272 (Fab, V domains shown, Tested as Fab-Y: Fab fragment joined through a peptide linker at CH1 to the GCN4 peptide (clone 7P14P); also called VR7272) VH: QSLEESGGRLVTPGTPLTLTCTVSGFSLSSYAMGWVRQAPGKGLEWIGAIGSITATGYARWAKGRFSISKTSTTVDLKMTSPTTEDTATYFCAREIYVGSAYAFDIWGPGTLVTVSS VL: AYDMTQTPASVEVAVGDTVTIKCQASQSISNYLAWYQQKPGQPPKLLIYLASTLASGVPSRFKGSGSGTEFTLTISDLECADAATYYCQQGYIDNVNKGFGGGTEVVVK",binding result,[1],binds
same,binding result,[2],binds
